B1: EEHEE_rd4_0763 (parent)
chain: LTVHVGNVTYHFDNPEQAEEWAKRMAKKYQGQIHVKDGQFRIE

Variants of: B1
Test: folding stability dG (cDNA display proteolysis); higher = more stable
Settings: PBS, room temperature

Folding stability dG [kcal/mol]: each site, then its substitutions
L1: C 2.7; M 1.84; W 3.2; T 2.05; D 0.974; G 1.77; F 2.66; H 2.13; Q 1.45; K 1.51; N 2.06; Y 2.92
Q30: W 1.31; N 2.06; E 1.33; R 1.79; G 2.24; M 1.59; S 1.66; V 1.23
V8: E 1.36; L 1.66; C 3.03; Q 1.58; I 1.7; M 1.69; G 0.756; K 1.74
I42: A 1.02; N 1.05; H 1.12; W 1.32; E 1.08; G 1.2; Q 0.913; V 1.58
A18: L 1.27; C 1.54; Q 0.969; W 1.11; V 0.996; H 0.576
G38: V 0.809; N 1.36; K 0.828; H 1.02; M 0.911; Q 0.9; R 0.874
T9: Y 1.45; W 1.28; E 1.29; L 1.58; P 0.963
F40: H 1.02; Q 0.978; P 1.01; G 0.985; Y 1.78; M 1.74; T 1.2; A 1.06; N 1.14
Q17: T 1.57; A 1.83; F 1.36; E 1.84; V 1.57; W 1.54; C 2.6
M25: N 0.629; C 2.03; L 1.52; Y 1.45; K 0.502; F 1.42
H11: W 1.71; E 1.23; L 1.5; F 1.75; I 1.56; A 1.31; R 1.58; C 2.74; G 0.755; T 1.67
Y10: D 0.031; M 0.903; F 1.54; E 0.183; C 1.77
N14: Q 1.37; R 1.45; V 1.39; I 1.49; M 1.31; S 1.67; K 1.6; H 1.57; T 1.76; D 1.81
T2: E 1.48; M 1.53; W 1.5; V 1.61; L 1.64; S 1.55
R24: H 1.44; P -0.675; S 1.33; F 1.79; L 1.94; G 0.948; Q 1.54; I 1.75; E 1.43; W 1.67
K27: R 1.75; E 1.67; Q 1.66; M 1.74; T 1.58; H 1.53; P 0.724
H34: D 1.26; W 1.42; A 1.56; M 1.69; S 1.83
D37: W 0.774; S 0.634; I 0.903; H 0.769; P 0.309; R 0.615; G 1.12; K 0.884; N 1.43; L 1.12
Q32: T 1.99; H 1.81; S 1.62; M 1.49; R 1.64; G 1.01; Y 1.51; N 1.33
F12: Y 0.446; C 1.44; N -0.088; K -0.024; R -0.481; S 0.081
E43: K 1.23; D 1.44; P 1.15; I 2; F 1.69; Q 1.29; S 1.4; C 3.04; G 1.26
Q39: H 1.76; I 1.52; S 1.57; D 1.63; F 1.17
